Key:
[1] = target: GST-RhoC (wild type) (human) (UniProt P08134)
[2] = target: GST-RhoC-43T (human) (UniProt P08134)

XPLN-catalysed mant-nucleotide exchange in vitro, fold stimulation [1]: 1.1 fold
XPLN-catalysed mant-nucleotide exchange in vitro, fold stimulation [2]: 1.4 fold
B1: GST-XPLN (full length) (enzyme)
chain: MVAKDYPFYLTVKRANCSLELPPASGPAKDAEEPSNKRVKPLSRVTSLANLIPPVKATPLKRFSQTLQRSISFRSESRPDILAPRPWSRNAAPSSTKRRDSKLWSETFDVCVNQMLTSKEIKRQEAIFELSQGEEDLIEDLKLAKKAYHDPMLKLSIMTEQELNQIFGTLDSLIPLHEELLSQLRDVRKPDGSTEHVGPILVGWLPCLSSYDSYCSNQVAAKALLDHKKQDHRVQDFLQRCLESPFSRKLDLWNFLDIPRSRLVKYPLLLREILRHTPNDNPDQQHLEEAINIIQGIVAEINTKTGESECRYYKERLLYLEEGQKDSLIDSSRVLCCHGELKNNRGVKLHVFLFQEVLVITRAVTHNEQLCYQLYRQPIPVKDLLLEDLQDGEVRLGGSLRGAFSNNERIKNFFRVSFKNGSQSQTHSLQANDTFNKQQWLNCIRQAKETVLCAAGQAGVLDSEGSFLNPTTGSRELQGETKLEQMDQSDSESDCSMDTSEVSLDCERMEQTDSSCGNSRHGESNV
